Article PMC8634136 (The EMBO Journal, 2021)

How the values were obtained:
TIMELESS = molecular target: T1, TIMELESS (human, UniProt Q9UNS1 1-1208); test: cryo-EM structure; replisome reconstituted on fork DNA with AMP-PNP, isolated on a glycerol gradient with glutaraldehyde and BS3; 3.2 Å overall; a sample without CLASPIN solved at 3.4 Å; conditions: both partners purified
T1 construct: Stood in the structure as a subunit of m3; residues 7-803 modelled (527-684 not visualised)
T1 sequence: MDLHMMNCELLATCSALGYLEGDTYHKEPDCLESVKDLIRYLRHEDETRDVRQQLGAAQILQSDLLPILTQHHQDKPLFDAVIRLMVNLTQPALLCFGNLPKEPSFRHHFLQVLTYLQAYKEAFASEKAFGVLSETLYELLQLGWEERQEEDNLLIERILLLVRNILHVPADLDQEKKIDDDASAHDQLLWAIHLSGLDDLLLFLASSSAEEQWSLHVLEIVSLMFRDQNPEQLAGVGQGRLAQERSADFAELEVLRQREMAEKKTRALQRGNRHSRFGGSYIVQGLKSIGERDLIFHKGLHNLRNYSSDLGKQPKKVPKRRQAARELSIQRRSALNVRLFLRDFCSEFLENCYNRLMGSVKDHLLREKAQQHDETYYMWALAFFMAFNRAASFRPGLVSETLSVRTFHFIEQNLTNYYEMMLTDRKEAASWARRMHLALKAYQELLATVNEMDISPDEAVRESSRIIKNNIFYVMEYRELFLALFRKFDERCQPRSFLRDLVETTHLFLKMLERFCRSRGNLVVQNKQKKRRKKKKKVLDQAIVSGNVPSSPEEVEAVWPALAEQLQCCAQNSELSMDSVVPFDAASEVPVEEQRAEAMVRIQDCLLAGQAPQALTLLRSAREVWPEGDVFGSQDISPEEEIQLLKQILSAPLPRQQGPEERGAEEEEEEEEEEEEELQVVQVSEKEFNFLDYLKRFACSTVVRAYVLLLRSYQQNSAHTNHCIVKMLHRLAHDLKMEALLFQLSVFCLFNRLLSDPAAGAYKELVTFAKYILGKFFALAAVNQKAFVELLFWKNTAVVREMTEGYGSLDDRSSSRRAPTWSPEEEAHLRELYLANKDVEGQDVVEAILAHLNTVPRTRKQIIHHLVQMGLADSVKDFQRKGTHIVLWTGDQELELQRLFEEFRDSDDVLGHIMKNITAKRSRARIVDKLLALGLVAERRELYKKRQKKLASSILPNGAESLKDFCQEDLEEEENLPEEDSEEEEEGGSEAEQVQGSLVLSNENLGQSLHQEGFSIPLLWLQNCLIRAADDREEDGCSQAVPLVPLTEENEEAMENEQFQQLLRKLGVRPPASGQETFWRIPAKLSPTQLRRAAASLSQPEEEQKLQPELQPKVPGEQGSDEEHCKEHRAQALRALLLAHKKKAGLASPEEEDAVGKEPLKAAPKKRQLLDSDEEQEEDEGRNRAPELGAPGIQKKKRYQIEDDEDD

CLASPIN = molecular target: T2, CLASPIN (human, UniProt Q9HAW4 1-1339); test: as above; conditions: both partners purified
T2 construct: CLASPIN, human; Only residues 284-319, 525-540 and 592-618 are modelled in the structure; source: Hi5 insect cells (baculovirus), purified (Flag M2, Superose 6)
T2 sequence (Q9HAW4 whole entry, the tested form may be a part): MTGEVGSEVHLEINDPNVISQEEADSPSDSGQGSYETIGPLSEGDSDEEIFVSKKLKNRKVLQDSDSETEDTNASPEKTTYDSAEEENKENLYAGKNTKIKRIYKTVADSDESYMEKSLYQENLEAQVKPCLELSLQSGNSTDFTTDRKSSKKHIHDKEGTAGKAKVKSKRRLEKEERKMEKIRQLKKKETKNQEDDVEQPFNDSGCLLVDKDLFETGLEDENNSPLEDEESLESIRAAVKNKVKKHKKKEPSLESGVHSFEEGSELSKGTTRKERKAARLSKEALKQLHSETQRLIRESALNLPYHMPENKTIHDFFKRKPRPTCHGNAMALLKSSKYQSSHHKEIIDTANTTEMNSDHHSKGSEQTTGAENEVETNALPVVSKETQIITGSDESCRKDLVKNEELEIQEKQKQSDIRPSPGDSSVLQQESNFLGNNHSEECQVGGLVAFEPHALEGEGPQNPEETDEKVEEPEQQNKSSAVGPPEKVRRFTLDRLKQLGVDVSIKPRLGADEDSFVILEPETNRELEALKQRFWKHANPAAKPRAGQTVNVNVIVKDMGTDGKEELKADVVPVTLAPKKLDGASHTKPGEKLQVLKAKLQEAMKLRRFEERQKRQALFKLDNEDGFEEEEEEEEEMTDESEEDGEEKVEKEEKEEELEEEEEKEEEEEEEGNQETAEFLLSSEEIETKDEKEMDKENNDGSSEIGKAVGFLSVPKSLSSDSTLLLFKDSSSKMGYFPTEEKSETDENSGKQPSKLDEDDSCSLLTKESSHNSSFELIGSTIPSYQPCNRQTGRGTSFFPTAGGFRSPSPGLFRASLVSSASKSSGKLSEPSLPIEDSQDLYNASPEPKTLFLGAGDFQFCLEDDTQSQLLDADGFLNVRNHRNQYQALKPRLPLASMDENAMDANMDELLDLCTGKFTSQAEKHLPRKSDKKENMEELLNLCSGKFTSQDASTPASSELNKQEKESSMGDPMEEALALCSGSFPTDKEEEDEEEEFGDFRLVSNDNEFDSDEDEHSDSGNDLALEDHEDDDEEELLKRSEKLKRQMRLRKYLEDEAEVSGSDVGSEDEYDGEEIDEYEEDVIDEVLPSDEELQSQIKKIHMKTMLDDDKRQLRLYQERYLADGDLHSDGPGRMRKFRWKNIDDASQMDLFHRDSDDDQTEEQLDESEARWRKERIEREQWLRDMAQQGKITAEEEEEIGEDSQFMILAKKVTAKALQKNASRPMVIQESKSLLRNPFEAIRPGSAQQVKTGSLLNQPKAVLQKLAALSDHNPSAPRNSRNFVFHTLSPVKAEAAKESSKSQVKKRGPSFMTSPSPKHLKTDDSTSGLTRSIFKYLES

MCM3 = molecular target: T3, MCM3 (human, UniProt P25205-1 1-808); test: cryo-EM structure; core human replisome (100 nM hsCMG with 1.5-fold excess of AND-1, TIMELESS-TIPIN, Pol ε, CLASPIN) on fork DNA with AMP-PNP; glycerol gradient with glutaraldehyde and BS3; consensus map 3.2 Å and multi-body map of Pol ε/CDC45/GINS; PDB 7PFO; conditions: both partners purified
T3 construct: human MCM3, subunit of hsCMG; the construct lacks the 45 additional N-terminal residues of the longer isoform used in PDB 6XTX; Subunit of the CMG helicase in the replisome structure; source: Hi5 insect cells co-infected with baculoviruses for MCM2-7, GINS and CDC45; purified as hsCMG (Flag M2, Strep-Tactin XT, MonoQ)
T3 sequence: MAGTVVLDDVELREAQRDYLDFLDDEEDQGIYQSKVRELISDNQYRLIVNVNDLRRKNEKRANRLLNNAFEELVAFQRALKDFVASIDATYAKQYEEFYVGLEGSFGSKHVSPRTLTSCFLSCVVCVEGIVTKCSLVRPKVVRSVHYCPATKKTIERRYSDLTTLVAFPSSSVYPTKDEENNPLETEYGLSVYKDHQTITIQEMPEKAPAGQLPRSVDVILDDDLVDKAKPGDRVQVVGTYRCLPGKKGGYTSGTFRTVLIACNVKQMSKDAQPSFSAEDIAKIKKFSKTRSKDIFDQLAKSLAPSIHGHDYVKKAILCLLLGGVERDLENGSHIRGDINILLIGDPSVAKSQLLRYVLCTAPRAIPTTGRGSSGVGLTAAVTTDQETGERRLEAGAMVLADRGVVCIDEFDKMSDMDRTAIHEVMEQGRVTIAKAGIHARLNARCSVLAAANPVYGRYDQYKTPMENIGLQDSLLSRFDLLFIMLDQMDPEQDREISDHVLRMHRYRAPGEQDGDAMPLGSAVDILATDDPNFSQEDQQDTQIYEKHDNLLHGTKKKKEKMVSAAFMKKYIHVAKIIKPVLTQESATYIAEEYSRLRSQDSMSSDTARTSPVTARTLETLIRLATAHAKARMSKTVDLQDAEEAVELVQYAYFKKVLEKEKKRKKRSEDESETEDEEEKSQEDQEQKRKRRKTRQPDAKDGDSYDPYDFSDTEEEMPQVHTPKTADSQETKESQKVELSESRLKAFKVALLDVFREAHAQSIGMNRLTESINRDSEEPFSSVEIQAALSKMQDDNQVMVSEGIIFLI

MCM7 = molecular target: T4, MCM7 (human, UniProt P33993 1-719); test: cryo-EM structure; replisome reconstituted on fork DNA with AMP-PNP, isolated on a glycerol gradient with glutaraldehyde and BS3; 3.2 Å overall; a sample without CLASPIN solved at 3.4 Å; conditions: both partners purified
T4 construct: MCM7, human; Stood in the structure as a subunit of m1; source: Hi5 insect cells, purified as a subunit of hsCMG
T4 sequence (P33993 whole entry): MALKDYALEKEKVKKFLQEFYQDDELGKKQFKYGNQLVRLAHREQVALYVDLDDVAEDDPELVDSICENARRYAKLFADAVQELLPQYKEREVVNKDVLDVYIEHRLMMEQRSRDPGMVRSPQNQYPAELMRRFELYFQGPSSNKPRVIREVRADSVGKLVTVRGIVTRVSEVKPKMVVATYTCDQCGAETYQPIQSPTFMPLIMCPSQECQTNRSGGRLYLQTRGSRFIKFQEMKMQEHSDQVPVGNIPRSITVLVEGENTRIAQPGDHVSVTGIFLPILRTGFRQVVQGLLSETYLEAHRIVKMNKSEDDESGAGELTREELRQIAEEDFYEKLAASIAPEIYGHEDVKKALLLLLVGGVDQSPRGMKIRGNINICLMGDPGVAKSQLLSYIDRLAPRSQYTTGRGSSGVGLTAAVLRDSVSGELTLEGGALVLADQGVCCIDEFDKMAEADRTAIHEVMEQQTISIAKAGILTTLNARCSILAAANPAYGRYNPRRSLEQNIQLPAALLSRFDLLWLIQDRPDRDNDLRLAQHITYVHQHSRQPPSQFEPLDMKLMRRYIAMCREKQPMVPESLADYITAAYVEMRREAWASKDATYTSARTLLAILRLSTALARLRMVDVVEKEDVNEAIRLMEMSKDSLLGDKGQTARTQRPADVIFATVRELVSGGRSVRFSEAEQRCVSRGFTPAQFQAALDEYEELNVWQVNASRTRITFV

[1] = molecular target: the molecule itself; test: as above
[2] = molecular target: T5, human CDC45‐MCM‐GINS (CMG) helicase (human, UniProt P49736 1-904; P25205 1-808; P33991 1-863; P33992 1-734; Q14566 1-821; P33993 …); test: co-sedimentation; native glycerol gradient without cross-linker (40 mM HEPES-NaOH pH 7.5, 150 mM NaOAc, 0.5 mM TCEP, 500 µM AMP-PNP, 3 mM Mg(OAc)2), 200,000 g, 4°C, 2 h; 100 nM CMG pre-incubated with fork DNA, 1.5-fold molar excess of the other proteins; fractions on silver-stained SDS-PAGE; conditions: both partners purified
T5 construct: MCM2, human; MCM3, human; the construct lacks the 45 additional N-terminal amino acids of the longer isoform used in PDB 6XTX; MCM4, human; MCM5, human; MCM6, human; MCM7, human; CDC45, human; PSF1 (GINS subunit), human; PSF2 (GINS subunit), human; PSF3 (GINS subunit), human; SLD5 (GINS subunit), human; also called hsCMG; source: Hi5 insect cells co-infected with baculoviruses for MCM2-7, GINS …

B1: MCM6 (natural protein, human)
chain: MDLAAAAEPGAGSQHLEVRDEVAEKCQKLFLDFLEEFQSSDGEIKYLQLAEELIRPERNTLVVSFVDLEQFNQQLSTTIQEEFYRVYPYLCRALKTFVKDRKEIPLAKDFYVAFQDLPTRHKIRELTSSRIGLLTRISGQVVRTHPVHPELVSGTFLCLDCQTVIRDVEQQFKYTQPNICRNPVCANRRRFLLDTNKSRFVDFQKVRIQETQAELPRGSIPRSLEVILRAEAVESAQAGDKCDFTGTLIVVPDVSKLSTPGARAETNSRVSGVDGYETEGIRGLRALGVRDLSYRLVFLACCVAPTNPRFGGKELRDEEQTAESIKNQMTVKEWEKVFEMSQDKNLYHNLCTSLFPTIHGNDEVKRGVLLMLFGGVPKTTGEGTSLRGDINVCIVGDPSTAKSQFLKHVEEFSPRAVYTSGKASSAAGLTAAVVRDEESHEFVIEAGALMLADNGVCCIDEFDKMDVRDQVAIHEAMEQQTISITKAGVKATLNARTSILAAANPISGHYDRSKSLKQNINLSAPIMSRFDLFFILVDECNEVTDYAIARRIVDLHSRIEESIDRVYSLDDIRRYLLFARQFKPKISKESEDFIVEQYKHLRQRDGSGVTKSSWRITVRQLESMIRLSEAMARMHCCDEVQPKHVKEAFRLLNKSIIRVETPDVNLDQEEEIQMEVDEGAGGINGHADSPAPVNGINGYNEDINQESAPKASLRLGFSEYCRISNLIVLHLRKVEEEEDESALKRSELVNWYLKEIESEIDSEEELINKKRIIEKVIHRLTHYDHVLIELTQAGLKGSTEGSESYEEDPYLVVNPNYLLED
notes: MCM6, human; Stood in the structure as a subunit of m1; source: Hi5 insect cells, purified as a subunit of hsCMG
binding result (TIMELESS): binds
binding result (CLASPIN): binds

B2: POLE2 (natural protein, human)
chain: MAPERLRSRALSAFKLRGLLLRGEAIKYLTEALQSISELELEDKLEKIINAVEKQPLSSNMIERSVVEAAVQECSQSVDETIEHVFNIIGAFDIPRFVYNSERKKFLPLLMTNHPAPNLFGTPRDKAEMFRERYTILHQRTHRHELFTPPVIGSHPDESGSKFQLKTIETLLGSTTKIGDAIVLGMITQLKEGKFFLEDPTGTVQLDLSKAQFHSGLYTEACFVLAEGWFEDQVFHVNAFGFPPTEPSSTTRAYYGNINFFGGPSNTSVKTSAKLKQLEEENKDAMFVFLSDVWLDQVEVLEKLRIMFAGYSPAPPTCFILCGNFSSAPYGKNQVQALKDSLKTLADIICEYPDIHQSSRFVFVPGPEDPGFGSILPRPPLAESITNEFRQRVPFSVFTTNPCRIQYCTQEITVFREDLVNKMCRNCVRFPSSNLAIPNHFVKTILSQGHLTPLPLYVCPVYWAYDYALRVYPVPDLLVIADKYDPFTTTNTECLCINPGSFPRSGFSFKVFYPSNKTVEDSKLQGF
notes: human POLE2, subunit of Pol ε; residues 1-527 modelled; Purified with POLE1, POLE3 (C-terminal TEV CBP tag) and POLE4
binding result (MCM3): binds

B3: TIPIN (natural protein, human)
chain: MLEPQENGVIDLPDYEHVEDETFPPFPPPASPERQDGEGTEPDEESGNGAPVRVPPKRTVKRNIPKLDAQRLISERGLPALRHVFDKAKFKGKGHEAEDLKMLIRHMEHWAHRLFPKLQFEDFIDRVEYLGSKKEVQTCLKRIRLDLPILHEDFVSNNDEVAENNEHDVTSTELDPFLTNLSESEMFASELSRSLTEEQQQRIERNKQLALERRQAKLLSNSQTLGNDMLMNTPRAHTVEEVNTDEDQKEESNGLNEDILDNPCNDAIANTLNEEETLLDQSFKNVQQQLDATSRNITEAR
notes: TIPIN, human; Stood in the structure as a subunit of m3; residues 62-147 modelled
binding result (MCM7): binds
binding result (TIMELESS): binds

B4: AND‐1 (natural protein, human)
chain: MPATRKPMRYGHTEGHTEVCFDDSGSFIVTCGSDGDVRIWEDLDDDDPKFINVGEKAYSCALKSGKLVTAVSNNTIQVHTFPEGVPDGILTRFTTNANHVVFNGDGTKIAAGSSDFLVKIVDVMDSSQQKTFRGHDAPVLSLSFDPKDIFLASASCDGSVRVWQISDQTCAISWPLLQKCNDVINAKSICRLAWQPKSGKLLAIPVEKSVKLYRRESWSHQFDLSDNFISQTLNIVTWSPCGQYLAAGSINGLIIVWNVETKDCMERVKHEKGYAICGLAWHPTCGRISYTDAEGNLGLLENVCDPSGKTSSSKVSSRVEKDYNDLFDGDDMSNAGDFLNDNAVEIPSFSKGIINDDEDDEDLMMASGRPRQRSHILEDDENSVDISMLKTGSSLLKEEEEDGQEGSIHNLPLVTSQRPFYDGPMPTPRQKPFQSGSTPLHLTHRFMVWNSIGIIRCYNDEQDNAIDVEFHDTSIHHATHLSNTLNYTIADLSHEAILLACESTDELASKLHCLHFSSWDSSKEWIIDLPQNEDIEAICLGQGWAAAATSALLLRLFTIGGVQKEVFSLAGPVVSMAGHGEQLFIVYHRGTGFDGDQCLGVQLLELGKKKKQILHGDPLPLTRKSYLAWIGFSAEGTPCYVDSEGIVRMLNRGLGNTWTPICNTREHCKGKSDHYWVVGIHENPQQLRCIPCKGSRFPPTLPRPAVAILSFKLPYCQIATEKGQMEEQFWRSVIFHNHLDYLAKNGYEYEESTKNQATKEQQELLMKMLALSCKLEREFRCVELADLMTQNAVNLAIKYASRSRKLILAQKLSELAVEKAAELTATQVEEEEEEEDFRKKLNAGYSNTATEWSQPRFRNQVEEDAEDSGEADDEEKPEIHKPGQNSFSKSTNSSDVSAKSGAVTFSSQGRVNPFKVSASSKEPAMSMNSARSTNILDNMGKSSKKSTALSRTTNNEKSPIIKPLIPKPKPKQASAASYFQKRNSQTNKTEEVKEENLKNVLSETPAICPPQNTENQRPKTGFQMWLEENRSNILSDNPDFSDEADIIKEGMIRFRVLSTEERKVWANKAKGETASEGTEAKKRKRVVDESDETENQEEKAKENLNLSKKQKPLDFSTNQKLSAFAFKQE
notes: AND-1, human; Only the trimer of SepB domains is ordered in the map; source: Hi5 insect cells (baculovirus), purified (Flag M2, MonoQ, Superdex 200)
stoichiometry N [1]: 3
binding result [2]: binds
